The values below come from US20250258178A1 (SHIONOGI, published 2025).

Assay [1] deals with T1, human histidine-rich glycoprotein (HRG), purified from human plasma (human, UniProt P04196 19-525).
T1 construct: also called human purified HRG; human purified HRG protein
T1 sequence: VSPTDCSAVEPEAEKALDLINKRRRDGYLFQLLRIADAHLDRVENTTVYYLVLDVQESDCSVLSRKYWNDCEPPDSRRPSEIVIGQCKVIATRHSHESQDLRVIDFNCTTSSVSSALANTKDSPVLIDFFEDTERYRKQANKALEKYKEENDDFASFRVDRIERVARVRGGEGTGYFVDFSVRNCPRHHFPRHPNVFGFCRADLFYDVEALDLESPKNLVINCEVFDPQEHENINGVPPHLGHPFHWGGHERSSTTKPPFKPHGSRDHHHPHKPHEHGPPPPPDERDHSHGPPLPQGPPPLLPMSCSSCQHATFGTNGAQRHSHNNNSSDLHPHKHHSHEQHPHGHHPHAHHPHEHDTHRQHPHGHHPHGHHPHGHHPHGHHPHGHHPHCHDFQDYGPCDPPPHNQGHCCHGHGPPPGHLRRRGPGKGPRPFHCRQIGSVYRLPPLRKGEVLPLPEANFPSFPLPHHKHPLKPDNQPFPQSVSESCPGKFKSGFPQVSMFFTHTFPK
Put plainly: sandwich ELISA, HRG captured by solid phase 14-6F. The procedure: (§1) The capture antibody solution was dispensed at 25 μL per well into 384-well Maxisorp plates (NUNC), and the plates were incubated at room temperature for 3 hours. The plates were washed twice with 120 μL of washing solution per well (0.05% Tween 20-containing PBS). A blocking solution (1% BSA-containing PBS) was dispensed at 30 μL per well, and the plates were incubated at room temperature for 3 hours. The blocking solution was removed followed by dispensing the standard substance for evaluation at 20 μL per well (n=2), and the plates were incubated at room temperature for 3 hours. After washing the plates four times with the washing solution as described above, the solution of each detector antibody was dispensed at 10 μL per well, followed by dispensing a horseradish peroxidase-streptavidin solution (0.05 μg/mL) at 10 μL per well, and the plates were incubated at room temperature for 1 hour. After washing the plates four times with the washing solution as described above, a chromogenic substrate solution (TMB (3,3′,5,5′-tetramethylbenzidine)) was dispensed at 20 μL per well followed by incubating the plates at room temperature for 10 minutes, then a reaction stop solution 0.5 M H₂SO₄ was added at 20 μL/well, and the absorbance at 450 nm was measured.
(§2) The results regarding the evaluation of combinations chosen from 21 types of anti-HRG monoclonal antibodies are shown in Table 1. In Table 1, the absorbance at a wavelength of 450 nm of each combination was determined as follows: less than 1.0 OD: −, 1.0 OD or more and less than 2.0 OD: +, 2.0 OD or more and less than 3.0 OD: ++, and 3.0 OD or more: +++. The combinations of antibodies which could construct a sandwich ELISA system having enough level of absorbance change were 86 sets evaluated as ++ or +++ in Table 1.
In general terms: ELISA stands for enzyme-linked immunosorbent assay.

Assay [2] deals with T1, human histidine-rich glycoprotein …. Put plainly: sandwich ELISA, HRG captured by solid phase 65-3A. The procedure:
as §1, §2

Assay [3] has the same target. Kind of assay: sandwich ELISA, HRG captured by solid phase 75-2D. The procedure:
as §1, §2

For assay [4] the target is unchanged. Put plainly: sandwich ELISA, HRG captured by solid phase 50-6C-2A. The procedure:
as §1, §2

For assay [5] the target is unchanged. Put plainly: sandwich ELISA, HRG captured by solid phase 69-1A. The procedure: as §1, §2
Assay [6] has the same target. Kind of assay: sandwich ELISA, HRG captured by solid phase 35-3G-10C. The procedure:
as §1, §2

Assay [7] shares this target. Put plainly: sandwich ELISA, HRG captured by solid phase 9-1F. The procedure: as §1, §2
Assay [8] has the same target. Put plainly: sandwich ELISA, HRG captured by solid phase 40-10G. The procedure: as §1, §2
Assay [9] shares this target. Put plainly: sandwich ELISA, HRG captured by solid phase 3-4E. The procedure: as §1, §2
The target is the same in assay [10]. Kind of assay: sandwich ELISA, HRG captured by solid phase 81-2C. The procedure: as §1, §2
Assay [11] shares this target. Put plainly: sandwich ELISA, HRG captured by solid phase 42-10D. The procedure: as §1, §2
The target is the same in assay [12]. Kind of assay: sandwich ELISA, HRG captured by solid phase 32-4C. The procedure:
as §1, §2

For assay [13] the target is unchanged. Kind of assay: sandwich ELISA, HRG captured by solid phase 19-1C. The procedure:
as §1, §2

The target is the same in assay [14]. Put plainly: sandwich ELISA, HRG captured by solid phase 88-2E. The procedure:
as §1, §2

Assay [15] shares this target. Kind of assay: sandwich ELISA, HRG captured by solid phase 93-4C. The procedure: as §1, §2
Assay [16] has the same target. Put plainly: sandwich ELISA, HRG captured by solid phase 67-8A-5F. The procedure:
as §1, §2

For assay [17] the target is unchanged. Put plainly: sandwich ELISA, HRG captured by solid phase 58-5C. The procedure:
as §1, §2

Assay [18] has the same target. Put plainly: sandwich ELISA, HRG captured by solid phase 94-7A-3C-3D. The procedure: as §1, §2
The target is the same in assay [19]. Put plainly: sandwich ELISA, HRG captured by solid phase 31-1H. The procedure: as §1, §2
For assay [20] the target is unchanged. Kind of assay: sandwich ELISA, HRG captured by solid phase 13-2G. The procedure:
as §1, §2

The target is the same in assay [21]. Kind of assay: sandwich ELISA, HRG captured by solid phase 6-12A-10B-9G. The procedure: as §1, §2

B1: anti-HRG monoclonal antibody 67-8A-5F (antibody, V domains shown)
VH: EVQLQESGPGLVKPSQSLSLTCTVTGYSITSDYAWNWIRQFPGNKLEWMGYISYSGSTSYNPSLKSRISITRDTSKNQFFLQLNSVTTEDTATYYCASASYRYAWFAYWGQGTLVTVSA
VL: DIQMTQTTSSLSASLGDRVTISCRASQDISNYLNWYQQKPDGTVKLLIYYTSRLLSGVPSRFSGSGSGTDYSLTISNLEQEDIATYFCQQGNTLPTFGGGTKLEIK
notes: Mouse hybridoma monoclonal
B1: the “absorbance at 450 nm (OD450)” value in assay [1] was 2 to 3 od; in assay [2], 1 to 2 od; in assay [3], at least 3 od; in [8], 1 to 2 od; in assay [9], at least 3 od; in assay [15] it was 2 to 3 od. Besides, the “absorbance at 450 nm (OD450)” value fell in the range of 2 to 3 od in [17] and 1 to 2 od in assay [18]. In addition, the “absorbance at 450 nm” value in [4], in assay [5], in [6], in assay [7], in [10] and in [11] was under 1 OD throughout. For the same molecule, the “absorbance at 450 nm” value in [12], in assay [13], in [14], in [16], in assay [19] and in assay [20] was under 1 OD throughout. Also, the “absorbance at 450 nm” value in assay [21] was under 1 OD.
